Data on 2 substances can be found in publication PMC8406172, “Mechanism of DNA Interaction and Translocation by the Replicase of a Circular Rep-Encoding Single-Stranded DNA Virus” (mBio, 2021).

The test system of series [1] is O=c1ccn([C@@H]2O[C@H](COP(=O)(O)OP(=O)(O)OP(=O)(O)O)[C@@H](O)[C@H]2O)c(=O)[nH]1. The series is described as follows: purified protein. To be noted: 66 nM Rep, room temperature; copurifying DNA present.
Description: (§1) NTP/NADH-coupled spectrophotometric assay (pyruvate kinase / lactate dehydrogenase) on PCV2 Rep (replicase)
Series [2] has as its system Nc1ccn([C@@H]2O[C@H](COP(=O)(O)OP(=O)(O)OP(=O)(O)O)[C@@H](O)[C@H]2O)c(=O)n1. The series is described as follows: purified protein. Particulars: 66 nM Rep, room temperature; copurifying DNA present.
Description: as §1
The test system of series [3] is Nc1nc2c(ncn2[C@@H]2O[C@H](COP(=O)(O)OP(=O)(O)OP(=O)(O)O)[C@@H](O)[C@H]2O)c(=O)[nH]1. Put plainly: purified protein. To be noted: 66 nM Rep, room temperature; copurifying DNA present.
Description: as §1
Series [4] addresses porcine circovirus 2 (PCV2) replicase (Rep) (porcine circovirus 2 (PCV2b)). Put plainly: cryo-EM structure.

Regarding “PCV2 Rep (replicase) (Porcine circovirus 2)”, the K0.5 in series [1] turned out to be 78.5 µM; in series [2] it was 284.4 µM; in series [3] it was 577.2 µM. Moreover, the kcat worked out at 0.24 s⁻¹ in series [1], 0.16 s⁻¹ in series [2] and 0.56 s⁻¹ in series [3].

For “porcine circovirus 2 (PCV2) replicase (Rep) (enzyme)”, the stoichiometry N in series [4] was 6.

In general, kcat refers to the number of substrate molecules converted per active site and unit of time at saturation. A word on the stoichiometry N: it is a count of units in the complex or per binding partner.
